Measured values: the Immune Epitope Database (IEDB)

How the values were obtained:
HLA-A*01:01 = assay: IEDB peptide-MHC binding, purified MHC/competitive/radioactivity; filed as Kd, often an IC50 or EC50 that approximates it; ≥ and ≤ were set here for values at or beyond the usual limits of such assays
HLA-A*23:01 = assay: as above
HLA-A*24:02 = assay: as above
HLA-A*26:01 = assay: as above
HLA-A*29:02 = assay: as above
HLA-A*30:02 = assay: as above
HLA-B*44:02 = assay: as above
HLA-B*44:03 = assay: as above
HLA-A*02:01 = assay: IEDB peptide-MHC binding, purified MHC/competitive/fluorescence; filed as Kd, often an IC50 or EC50 that approximates it; ≥ and ≤ were set here for values at or beyond the usual limits of such assays
HLA-A*02:02 = assay: IEDB peptide-MHC binding, purified MHC/competitive/radioactivity; filed as Kd, often an IC50 or EC50 that approximates it; ≥ and ≤ were set here for values at or beyond the usual limits of such assays; details: source organism: Vaccinia virus WR
HLA-A*02:03 = assay: as above; details: source organism: Vaccinia virus WR
HLA-A*02:06 = assay: as above; details: source organism: Vaccinia virus WR
HLA-A*30:01 = assay: as above
HLA-A*32:01 = assay: as above
HLA-B*40:01 = assay: as above
HLA-B*27:05 = assay: IEDB peptide-MHC binding, purified MHC/direct/fluorescence; filed as Kd, often an IC50 or EC50 that approximates it; ≥ and ≤ were set here for values at or beyond the usual limits of such assays; details: source organism: Mammarenavirus lassaense
HLA-B*48:01 = assay: as above; details: source organism: Mammarenavirus lassaense
HLA-B*51:01 = assay: IEDB peptide-MHC binding, purified MHC/competitive/radioactivity; filed as Kd, often an IC50 or EC50 that approximates it; ≥ and ≤ were set here for values at or beyond the usual limits of such assays
HLA-B*07:02 = assay: as above; details: source organism: Dengue virus 2 Jamaica/1409/1983
HLA-B*53:01 = assay: as above; details: source organism: Dengue virus 2 Jamaica/1409/1983
HLA-B*18:01 = assay: IEDB peptide-MHC binding, purified MHC/direct/fluorescence; filed as Kd, often an IC50 or EC50 that approximates it; ≥ and ≤ were set here for values at or beyond the usual limits of such assays; details: source organism: West Nile virus
HLA-B*57:01 = assay: as above; details: source organism: Entamoeba histolytica HM-1:IMSS
HLA-B*58:01 = assay: as above; details: source organism: Entamoeba histolytica HM-1:IMSS
[1] = source organism: SARS coronavirus Tor2
[2] = source organism: Mammarenavirus machupoense
[3] = source organism: Dengue virus 2 Jamaica/1409/1983
[4] = source organism: Mammarenavirus choriomeningitidis
[5] = source organism: Dengue virus 1 Brazil/97-11/1997
[6] = source organism: Dengue virus 4 Philippines/H241/1956
[7] = source organism: Mammarenavirus whitewaterense

Sequence: PFWITAIYVF
- Kd (HLA-A*01:01; [1]): 410 nM
- Kd (HLA-A*23:01; [1]): 0.189 nM
- Kd (HLA-A*24:02; [1]): 1.92 nM
- Kd (HLA-A*26:01; [1]): 724 nM
- Kd (HLA-A*29:02; [1]): 657 nM
- Kd (HLA-A*30:02; [1]): 16000 nM

Sequence: QCGDPSSFDY
- Kd (HLA-A*01:01; [2]): 1400 nM
- Kd (HLA-A*23:01; [2]): ≥ 28800 nM
- Kd (HLA-A*24:02; [2]): ≥ 70300 nM
- Kd (HLA-A*26:01; [2]): ≥ 69700 nM
- Kd (HLA-A*29:02; [2]): 5830 nM
- Kd (HLA-A*30:02; [2]): 3310 nM

Sequence: QEHETSWHY
- Kd (HLA-B*44:02; [3]): 46.7 nM
- Kd (HLA-B*44:03; [3]): 29.6 nM

Sequence: QFKDNVILL
- Kd (HLA-A*01:01; [1]): ≥ 51800 nM
- Kd (HLA-A*23:01; [1]): 1150 nM
- Kd (HLA-A*24:02; [1]): 1130 nM
- Kd (HLA-A*26:01; [1]): ≥ 27500 nM
- Kd (HLA-A*29:02; [1]): ≥ 21700 nM
- Kd (HLA-A*30:02; [1]): ≥ 40000 nM

Sequence: QIFNIISYI
- Kd (HLA-A*02:01; source organism: Variola virus): 31.1 nM
- Kd (HLA-A*02:02): 111 nM
- Kd (HLA-A*02:03): 15.1 nM
- Kd (HLA-A*02:06): 1.78 nM

Sequence: QLQSPGVADY
- Kd (HLA-A*01:01; [4]): 290 nM
- Kd (HLA-A*26:01; [4]): 7700 nM
- Kd (HLA-A*29:02; [4]): ≥ 24900 nM
- Kd (HLA-A*30:01; [4]): ≥ 70400 nM
- Kd (HLA-A*30:02; [4]): 43 nM
- Kd (HLA-A*32:01; [4]): ≥ 69900 nM

Sequence: RELKCGSGI
- Kd (HLA-B*40:01; [5]): 13.8 nM
- Kd (HLA-B*44:02; [5]): 119 nM

Sequence: RKLLESQGR
- Kd (HLA-B*27:05): 451 nM
- Kd (HLA-B*48:01): ≥ 20000 nM

Sequence: RTCSNWVPL
- Kd (HLA-A*02:01; source organism: Vaccinia virus Ankara): 329 nM

Sequence: SEMAEALKGM
- Kd (HLA-B*40:01; [5]): 613 nM
- Kd (HLA-B*44:02; [5]): 68.3 nM
- Kd (HLA-B*44:03; [5]): 22.4 nM

Sequence: SEMGANFRAD
- Kd (HLA-B*44:02; [5]): 137 nM

Sequence: SGALDTTSY
- Kd (HLA-A*01:01; [1]): ≥ 80600 nM
- Kd (HLA-A*23:01; [1]): ≥ 77800 nM
- Kd (HLA-A*24:02; [1]): ≥ 77600 nM
- Kd (HLA-A*26:01; [1]): ≥ 55500 nM
- Kd (HLA-A*29:02; [1]): 168 nM
- Kd (HLA-A*30:02; [1]): 20.9 nM

Sequence: SMRRNYFTAEV
- Kd (HLA-A*02:01; source organism: Influenza A virus (A/quail/Hong Kong/SF550/00(H6N1))): 1330 nM

Sequence: SSPDAVTTY
- Kd (HLA-A*01:01; [1]): 5490 nM
- Kd (HLA-A*23:01; [1]): ≥ 77800 nM
- Kd (HLA-A*24:02; [1]): ≥ 77600 nM
- Kd (HLA-A*26:01; [1]): 9740 nM
- Kd (HLA-A*29:02; [1]): ≥ 21600 nM
- Kd (HLA-A*30:02; [1]): 3290 nM

Sequence: VEMGEAAAIF
- Kd (HLA-B*40:01; [6]): 971 nM
- Kd (HLA-B*44:02; [6]): 12.9 nM
- Kd (HLA-B*44:03; [6]): 166 nM

Sequence: VEPWLRGNQF
- Kd (HLA-B*40:01; [5]): 3780 nM
- Kd (HLA-B*44:02; [5]): 73 nM

Sequence: VPLLALGCY
- Kd (HLA-B*51:01; [5]): 14900 nM

Sequence: VPSIKAGNDI
- Kd (HLA-B*07:02): 2130 nM
- Kd (HLA-B*51:01; [3]): 8470 nM
- Kd (HLA-B*53:01): ≥ 59800 nM

Sequence: VSSPDAVTTY
- Kd (HLA-A*01:01; [1]): 223 nM
- Kd (HLA-A*23:01; [1]): ≥ 70000 nM
- Kd (HLA-A*24:02; [1]): ≥ 70300 nM
- Kd (HLA-A*26:01; [1]): 3700 nM
- Kd (HLA-A*29:02; [1]): 1840 nM
- Kd (HLA-A*30:02; [1]): 11.3 nM

Sequence: VWKRFEHLCV
- Kd (HLA-A*01:01; [7]): ≥ 70400 nM
- Kd (HLA-A*23:01; [7]): 7990 nM
- Kd (HLA-A*24:02; [7]): ≥ 47600 nM
- Kd (HLA-A*26:01; [7]): ≥ 69700 nM
- Kd (HLA-A*29:02; [7]): ≥ 71400 nM
- Kd (HLA-A*30:02; [7]): 10500 nM

Sequence: WEALDTMYV
- Kd (HLA-B*18:01): 556 nM

Sequence: WFSQRGGSY
- Kd (HLA-A*01:01; [1]): 182 nM
- Kd (HLA-A*23:01; [1]): ≥ 77800 nM
- Kd (HLA-A*24:02; [1]): ≥ 62500 nM
- Kd (HLA-A*26:01; [1]): 2160 nM
- Kd (HLA-A*29:02; [1]): 0.847 nM
- Kd (HLA-A*30:02; [1]): 11 nM

Sequence: WMMAMRYPITA
- Kd (HLA-A*02:01; source organism: Influenza A virus (A/chicken/Fujian/25/00(H9N2))): 1.5 nM

Sequence: WPISKMDIGV
- Kd (HLA-B*51:01; source organism: Dengue virus 1 Singapore/S275/1990): 10700 nM

Sequence: YLRPYMHGY
- Kd (HLA-B*57:01): 5460 nM
- Kd (HLA-B*58:01): 12000 nM

Sequence: YVSSIFLHL
- Kd (HLA-A*01:01; [7]): 514 nM
- Kd (HLA-A*26:01; [7]): 1850 nM
- Kd (HLA-A*29:02; [7]): 15.7 nM
- Kd (HLA-A*30:01; [7]): 4820 nM
- Kd (HLA-A*30:02; [7]): 12500 nM
- Kd (HLA-A*32:01; [7]): ≥ 51000 nM
